# Assay results taken from article PMC7593309, “Structural insights into Arabidopsis ethylene response factor 96 with an extended N-terminal binding to GCC box”.
# What was measured:
# AtERF96 WT [1] = target: T1, AtERF96 WT (Arabidopsis thaliana, UniProt Q9LSX0 1-131); experiment: X-ray crystallography; 1.76 A; fEMSA: 30 mM HEPES pH 7.4, 62.5 mM NaCl, 5% glycerol, 30 min RT, gel at 4 C; FP: 30 mM HEPES pH 7.4, 250 mM NaCl, 10% glycerol, 10 nM probe final (20 nM mixed 1:1); details: protein: recombinant; tags: N-terminal 6xHis (pET28a); blunt
# T1 sequence (Q9LSX0 whole entry): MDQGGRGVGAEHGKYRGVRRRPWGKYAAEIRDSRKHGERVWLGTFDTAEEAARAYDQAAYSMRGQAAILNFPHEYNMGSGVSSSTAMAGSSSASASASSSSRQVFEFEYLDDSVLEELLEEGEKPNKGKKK
# AtERF96 WT [2] = target: T1, AtERF96 WT; experiment: fluorescence polarization; two-site fit (KdHi, KdLo); fEMSA: 30 mM HEPES pH 7.4, 62.5 mM NaCl, 5% glycerol, 30 min RT, gel at 4 C; FP: 30 mM HEPES pH 7.4, 250 mM NaCl, 10% glycerol, 10 nM probe final (20 nM mixed 1:1); details: protein: recombinant; tags: N-terminal 6xHis (pET28a); label: 5'-fluorescein on forward strand
# AtERF96 WT [3] = target: T1, AtERF96 WT; experiment: EMSA; fEMSA: 30 mM HEPES pH 7.4, 62.5 mM NaCl, 5% glycerol, 30 min RT, gel at 4 C; FP: 30 mM HEPES pH 7.4, 250 mM NaCl, 10% glycerol, 10 nM probe final (20 nM mixed 1:1); details: protein: recombinant; tags: N-terminal 6xHis (pET28a); label: 5'-fluorescein on forward strand; blunt
binder,measurement,setting,value
GCC11 (crystal) (dsDNA) DNA 1: TAGCCGCCAGC DNA 2: GCTGGCGGCTA,binding result,AtERF96 WT [1],binds
GCC12 (dsDNA) DNA 1: GTAGCCGCCAGC DNA 2: GCTGGCGGCTAC,binding result,AtERF96 WT [2],binds
GCC11 probe (fEMSA) (dsDNA) DNA 1: TAGCCGCCAGC DNA 2: GCTGGCGGCTA,binding result,AtERF96 WT [3],binds
